B1: placental ribonuclease inhibitor (other, UniProt P13489 2-461, looked up)
chain: SLDIQSLDIQCEELSDARWAELLPLLQQCQVVRLDDCGLTEARCKDISSALRVNPALAELNLRSNELGDVGVHCVLQGLQTPSCKIQKLSLQNCCLTGAGCGVLSSTLRTLPTLQELHLSDNLLGDAGLQLLCEGLLDPQCRLEKLQLEYCSLSAASCEPLASVLRAKPDFKELTVSNNDINEAGVRVLCQGLKDSPCQLEALKLESCGVTSDNCRDLCGIVASKASLRELALGSNKLGDVGMAELCPGLLHPSSRLRTLWIWECGITAKGCGDLCRVLRAKESLKELSLAGNELGDEGARLLCETLLEPGCQLESLWVKSCSFTAACCSHFSSVLAQNRFLLELQISNNRLEDAGVRELCQGLGQPGSVLRVLWLADCDVSDSSCSSLAATLLANHSLRELDLSNNCLGDAGILQLVESVRQPGCLLEQLVLYDIYWSEEMEDRLQALEKDKPSLRVIS
notes: also called PRI
B2: recombinant Met(-1) human pancreatic ribonuclease (enzyme)
chain: MKESRAKKFQRQHMDSDSSPSSSSTYCNQMMRRRNMTQGRCKPVNTFVHEPLVDVQNVCFQEKVTCKNGQGNCYKSNSSMHITDCRLTNGSRYPNCAYRTSPKERHIIVACEGSPYVPVHFDASVEDST
notes: mature; also called rhRNase; hRNase
B3: native Onc purified from the eggs of Rana pipiens (enzyme, UniProt P22069 1-104, looked up)
chain: QDWLTFQKKHITNTRDVDCDNIMSTNLFHCKDKNTFIYSRPEPVKAICKGIIASKNVLTTSEFYLSDCNVTSRPCKYKLKKSTNKFCVTCENQAPVHFVGVGSC
modifications: pyroglutamyl residue at position 1 (amino terminus)
notes: mature; also called nOnc; ONCONASE

What was measured:
[1] = target: rOnc1-9-hRNase12-127 hybrid (Rana pipiens; human) (UniProt P07998); assay: steady-state inhibition of RNase activity by PRI
[2] = target: rhRNase1-11-rOnc10-104 hybrid (human; Rana pipiens) (UniProt P07998); assay: approximate Ki from I50, inhibition of RNase activity by PRI
[3] = target: T1, RNase A (bovine pancreatic) (bovine, UniProt P61823 27-150); assay: steady-state tight-binding inhibition of RNase activity (CpA substrate, spectrophotometric); row RNaseA
T1 construct: also called bovine RNase A
T1 sequence (looked up): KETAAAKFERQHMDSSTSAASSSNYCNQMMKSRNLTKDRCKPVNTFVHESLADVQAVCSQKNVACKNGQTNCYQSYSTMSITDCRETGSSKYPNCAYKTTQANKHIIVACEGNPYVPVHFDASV
Experimental: (§1) Steady-state inhibition constants (K_i) for PRI interaction were determined using a modification of a method (Vincentini et al., Biochemistry 29:8827–8834 (1990)) to analyse competitive slow tight-binding inhibition mechanisms. Steady-state rates of product formation were calculated by a spectrophotometric method. […] The reaction was started by the addition of enzyme (0.01 to 2 nM depending on the assayed protein) and followed during 90–120 min. Several inhibitor concentrations were distributed below and above the enzyme concentration. […] The amount of product formed was calculated by following the absorbance decrease at 286 nm for CpA (change in ε=521 M^-1) and at 280 nm for UpG (change in ε=757 M^-1 cm^-1). The calculated steady-state rates for each inhibitor concentration were fitted by nonlinear regression to the equation for tight binding inhibition as described by Vicentini et al. (1990). In each case $I50$, defined as the total inhibitor concentration required to give 50% inhibition, were deduced from the V_s-I Dixon plot and compared to the calculated K_i, considering in each case the total enzyme concentration.
(§2) [a]K_i values were calculated from the observed steady-state rates (v_s) at different inhibitor concentrations, by fitting the data to the tight-binding non-linear regression equation.

[4] = target: B2; assay: steady-state tight-binding inhibition of RNase activity (CpA substrate, spectrophotometric); row rhRNase
Experimental: as §1, §2

[5] = target: rOnc1-9-hRNase12-127 hybrid (Rana pipiens; human) (UniProt P07998); assay: steady-state tight-binding inhibition of RNase activity (CpA substrate, spectrophotometric); row rOnc1-9-hRNase12-127
[6] = target: B3; assay: approximate Ki calculated from I50, inhibition of RNase activity (UpG substrate, spectrophotometric); row nOnc
Experimental: as §1, §2

[7] = target: rhRNase1-11-rOnc10-104 hybrid (human; Rana pipiens) (UniProt P07998); assay: approximate Ki calculated from I50, inhibition of RNase activity (UpG substrate, spectrophotometric); row rhRNase1-11-Onc10-104
[8] = target: B1; assay: steady-state inhibition of RNase activity by PRI
Experimental: as §1, §2

B1
fold increase of Ki in relation to rhRNase [1]: 30 fold | fold increase of PRI affinity in relation to Onc [2]: 3 fold | Ki [3]: 0.058 pM | Ki [4]: 0.2 pM | Ki [5]: 5.6 pM | Ki [6]: ≥ 100 µM | Ki [7]: > 400 nM

B2
binding result [8]: binds

B3
binding result [8]: binds
